{"source": "the PETadex activity labels (doi:10.1016/s0014-5793(99)00813-3)", "proteins": {"B1": {"name": "unnamed (protein)", "chain": "MKPENKLPVLDLISAEMKTVVNTLQPDLPPWPATGTIAEQRQYYTLERRFWNAGAPEMATRAYMVPTKYGQVETRLFCPQPDSPATLFYLHGGGFILGNLDTHDRIMRLLASYSQCTVIGIDYTLSPEARFPQAIEEIVAACCYFHQQAEDYQINMSRIGFAGDSAGAMLALASALWLRDKQIDCGKVAGVLLWYGLYGLRDSVTRRLLGGVWDGLTQQDLQMYEEAYLSNDADRESPYYCLFNNDLTREVPPCFIAGAEFDPLLDDSRLLYQTLAAHQQPCEFKLYPGTLHAFLHYSRMMKTADEALRDGAQFFTAQL"}, "B2": {"name": "unnamed (protein)", "chain": "B1 chain with G167A"}, "B3": {"name": "unnamed (protein)", "chain": "B1 chain with D266A"}, "B4": {"name": "unnamed (protein)", "chain": "B1 chain with D262A"}, "B5": {"name": "unnamed (protein)", "chain": "B1 chain with H103N"}, "B6": {"name": "unnamed (protein)", "chain": "B1 chain with D164A"}, "B7": {"name": "unnamed (protein)", "chain": "B1 chain with E128Q"}, "B8": {"name": "unnamed (protein)", "chain": "B1 chain with G163A"}}, "note": "Numbering of substitutions follows the chain as printed.", "data": [{"substrate": "p-NP-C4", "details": "pH 7.1; 25 °C", "units": {"Km": "µM", "kcat": "s⁻¹", "kcat/Km": "M⁻¹ s⁻¹"}, "values": [{"protein": "B1", "Km": 500, "kcat": 30.9, "kcat/Km": 61800}, {"protein": "B2", "Km": 2000, "kcat": 49.4, "kcat/Km": 24700}, {"protein": "B3", "Km": 500, "kcat": 3.4, "kcat/Km": 6800}, {"protein": "B4", "Km": 400, "kcat": 0.034, "kcat/Km": 85}, {"protein": "B5", "Km": 250, "kcat": 12.1, "kcat/Km": 48400}, {"protein": "B6", "Km": 1000, "kcat": 0.007, "kcat/Km": 7}, {"protein": "B7", "Km": 350, "kcat": 7.4, "kcat/Km": 21100}, {"protein": "B8", "Km": 500, "kcat": 2.9, "kcat/Km": 5800}]}]}
